Reference: patent US20100266532A1, “METHODS FOR INHIBITING SCARRING” (Renovo Limited, priority 2007, published 2010)

Key:
Assay type in all cases: in vivo
human wounds = assay: Clinical trial, two incidences of treatment within approximately 1 hour, lay panel VAS scar scoring
Description: FIG. 2 illustrates data from a clinical trial conducted by the inventors. In this study TGFβ3 and Placebo were each administered in two separate incidences of treatment (by means of two intradermal injections). However, unlike the methods of the present invention, the first incidence of treatment took place immediately prior to wounding but the second incidence of treatment occurred immediately after wound closure, i.e., both doses being administered within approximately 1 hour of one another (the first ten to thirty minutes prior to wounding, and the second ten to thirty minutes post-wounding). […] To test the treatment effect, ToScar of the TGFβ3 scar was subtracted from the anatomically matched Placebo ToScar on the other arm on each subject. ToScar was calculated as the sum of VAS scores (mm) from week 6 and months 3, 4, 5, 6 and 7. The scars were scored by an independent lay panel at 6 time points after dosing (week 6, months 3-7) using a 100 mm VAS line.
FIG. 8 illustrates data from a clinical trial conducted by the inventors in which either TGF-β3 or placebo were administered in two incidents of treatment (each comprising administration of the test substance by intradermal injection), the first incidence occurring prior to wounding and the second immediately after wound closure, i.e., both doses of TGF-β3 being the same as one another, and administered within approximately 1 hour (10-30 mins prior to wounding and 10-30 mins post wounding).

experimental rat wounds = assay: Rat model of scar formation, dose response, two equal doses separated by 24 hours; conditions: repeated treatment with low doses or with high doses (range 5-500 ng/cm), 24 hours apart
Description: FIG. 10 illustrates a “bell-shaped” dose response curve in a rat model of scar formation in response to different doses of TGF-β3. TGF-β3 was provided to wounds via two injections of TGF-β3 separated by approximately 24 hours. The amount of TGF-β3 provided in each injection was the same in each incidence of treatment.
FIG. 10 illustrates that the TGF-β3 “bell-shaped” dose response curve observed in human subjects is also found in experimental animals. Here, TGF-β3 was provided to experimental rat wounds, in two incidences of treatment separated by 24 hours (the first incidence of treatment occurring at, or around, the time of wounding). The amount of TGF-β3 administered per centimetre of wound in each incidence of treatment is shown on the X-axis (5 ng/cm, 50 ng/cm, 200 ng/cm or 500 ng/cm).

[1] = test system: 1 cm incisional rat wounds; assay: Rat model of wound healing and scarring, escalating versus constant doses, macroscopic VAS
Description: FIG. 11 is a graph comparing the mean differences between macroscopic VAS scores of scars formed on healing of 1 cm incisional rat wounds treated with a diluent control (“placebo treated wounds”), and scars formed on healing of wounds provided with one of the following regimes: • i) TGF-β3 control treatment using 20 ng TGF-β3 per centimetre; • ii) TGF-β3 control treatment using 100 ng TGF-β3 per centimetre; or • iii) TGFβ3 treatment using escalating doses of TGF-β3 administered in sequential incidences of treatment.
In each case the wounds were subject to two incidences of treatment, the first prior to wounding and the second approximately 24 hours later.
Placebo treated control wounds were provided with two incidences of treatment, each of which consisted of administration of a diluent. These placebo treated wounds provide a baseline value for scarring, with reference to which scar inhibition produced by TGF-β3 treatments may be determined. “Control treated wounds” were provided with two incidences of treatment, each comprising injections of TGF-β3 at either 20 ng/100 μl or 100 ng/100 μl (the same concentration of TGF-β3 being injected in each incidence of treatment). The “treated wounds” were provided with an escalating dose regimen in which the first incidence of treatment comprised an injection of 20 ng/100 μl TGFβ3, while the second incidence of treatment comprised an injection of 100 ng/100 μl TGFβ3.
Each animal received two wounds, and these were arranged so that the wounds of each animal included placebo treated wounds, as well as either treated wounds (examples treated using escalating doses of TGF-β3 administered in sequential incidences of treatment), or control treated wounds (receiving control treatment with TGF-β3 at the same dose in each incidence of treatment). This permits comparison between scars formed on healing of placebo treated wounds and treated or control treated wounds within the same subject. […]
Scars were assessed, and VAS scores produced, 70 days after wounding. […]

B1: TGF-β3: well-known anti-scarring growth factor, Sequence ID No. 1; labelled "Juvista" in FIGS. 8 and 9 (protein, listed as Homo sapiens)
chain: ALDTNYCFRNLEENCCVRPLYIDFRQDLGWKWVHEPKGYYANFCSGPCPYLRSADTTHSTVLGLYNTLNPEASASPCCVPQDLEPLTILYYVGRTPKVEQLSNMVVKSCKCS
Q: For B1, which “inhibition of scarring (mean VAS scores over time)” value (human wounds; two applications of 5, 50, 200 and 500 ng/100 μl per cm within approximately 1 hour, week 6 to month 7) is on record?
A: Its value is “scarring is inhibited”.

Q: What about the inhibition of scarring (human wounds; two applications of 5, 50, 200 and 500 ng/100 μl per cm, both within approximately 1 hour) of the same molecule?
A: Its inhibition of scarring is “effectively inhibited”.

Q: What about the “scar improvement (placebo ToScar minus TGFβ3 ToScar, sum of VAS scores), average” value (human wounds; two applications within approximately 1 hour, 200 ng/100 μl per cm, maximum improvement) of the same molecule?
A: The value was over 40 mm.

Q: And the “drug efficacy at top of dose range” value (human wounds; two applications within approximately 1 hour, 500 ng/100 μl per cm, versus 200 ng)?
A: Its value is “reduction in drug efficacy”.

Q: And the inhibition of scarring (experimental rat wounds)?
A: Its inhibition of scarring is “little inhibition of scarring”.

Q: What about the “scarring compared to placebo (macroscopic VAS)” value ([1]; dosed twice with either 20 ng/100 μl or 100 ng/100 μl, 24 hours apart, 70 days after wounding) of the same molecule?
A: Its value is “displayed a reduction in scarring”.

Q: And the “inhibition of scarring (macroscopic VAS) versus constant doses” value ([1]; escalating: 20 ng/100 μl then 100 ng/100 μl approximately 24 hours later, 70 days after wounding)?
A: Its value is “much larger magnitude of effect”.

Q: What about the “inhibition of scarring, macroscopic images” value ([1]; escalating: 20 ng/100 μl then 100 ng/100 μl approximately 24 hours later, 70 days post wounding) of the same molecule?
A: Its value is “greatest inhibition in scarring”.
